# B1: JB5 antibody (antibody)
# heavy: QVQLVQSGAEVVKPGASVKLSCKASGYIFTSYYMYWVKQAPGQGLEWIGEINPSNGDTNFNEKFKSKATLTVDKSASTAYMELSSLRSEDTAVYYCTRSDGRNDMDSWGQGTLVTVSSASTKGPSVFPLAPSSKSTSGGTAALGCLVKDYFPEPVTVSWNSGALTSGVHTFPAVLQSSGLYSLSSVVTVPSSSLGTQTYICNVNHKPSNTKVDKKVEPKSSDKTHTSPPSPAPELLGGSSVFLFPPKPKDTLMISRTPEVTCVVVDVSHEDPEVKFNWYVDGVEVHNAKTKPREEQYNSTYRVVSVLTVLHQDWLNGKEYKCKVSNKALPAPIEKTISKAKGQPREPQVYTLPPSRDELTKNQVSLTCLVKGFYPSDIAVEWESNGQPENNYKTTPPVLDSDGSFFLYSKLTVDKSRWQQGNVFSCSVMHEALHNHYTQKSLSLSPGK
# light: DIVLTQSPATLSVSPGERATISCRASQRVSSSTYSYMHWYQQKPGQPPKLLIKYASNLESGVPARFSGSGSGTDFTLTISSVEPEDFATYYCQHSWEIPPTFGGGTKLEIKRTVAAPSVFIFPPSDEQLKSGTASVVCLLNNFYPREAKVQWKVDNALQSGNSQESVTEQDSKDSTYSLSSTLTLSKADYEKHKVYACEVTHQGLSSPVTKSFNRGEC
# notes: The text mostly prints the name as 'JBS'; also called JBS (OCR spelling of JB5 in the text); mutant JBS antibody
# B2: hu5c8 antibody (antibody, human IgG1)
# heavy: not shown
# VL: DIVLTQSPATLSVSPGERATISCRASQRVSSSTYSYMHWYQQKPGQPPKLLIKYASNLESGVPARFSGSGSGTDFTLTISSVEPEDFATYYCQHSWEIPPTFGGGTKLEIK
# notes: Humanized 5c8, IgG1; no full light chain entry is named for it; also called parental antibody hu5c8; hu5c8-IgG1
# Assays:
# Experiment in all cases: solid phase ELISA, antibody coated, FCGR titrated
# [1] = target: T1, low affinity immunoglobulin gamma fc region receptor IIIB (FCGR3B) (CD16b) (human, UniProt O75015 17-200)
# T1 construct: Bought recombinant human protein (Santa Cruz Biotechnology); also called FCR3B
# T1 chain: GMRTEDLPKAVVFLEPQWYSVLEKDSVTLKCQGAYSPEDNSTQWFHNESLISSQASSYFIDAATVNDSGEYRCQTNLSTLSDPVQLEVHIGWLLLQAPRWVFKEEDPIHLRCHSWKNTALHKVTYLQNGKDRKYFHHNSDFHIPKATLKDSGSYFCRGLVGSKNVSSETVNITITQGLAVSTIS
# Description: (§1) The plate was blocked and recombinant human Fe gamma receptor (FCGR) proteins (Santa Cruz Biotechnology, Santa Cruz, California) titrated by 2-fold dilution with a starting concentration of 5 μg/ml. […] After binding and washing, the FCGR was detected using an appropriate FCGR isoform specific murine monoclonal antibody (1000 ng/ml) and a horseradish peroxidase conjugate goat anti-mouse IgG detector antibody.
# (§2) The plate was blocked and recombinant human Fe gamma receptor (FCGR) proteins (Santa Cruz Biotechnology, Santa Cruz, California) titrated onto by 2-fold dilution with a starting concentration of 5 μg/ml.
# [2] = target: T2, high affinity Fc region of IgG receptor IA (FCGR1A) (CD64) (human, UniProt P12314 16-292)
# T2 construct: Bought recombinant human protein (Santa Cruz Biotechnology)
# T2 sequence (P12314 16-292 limits assumed): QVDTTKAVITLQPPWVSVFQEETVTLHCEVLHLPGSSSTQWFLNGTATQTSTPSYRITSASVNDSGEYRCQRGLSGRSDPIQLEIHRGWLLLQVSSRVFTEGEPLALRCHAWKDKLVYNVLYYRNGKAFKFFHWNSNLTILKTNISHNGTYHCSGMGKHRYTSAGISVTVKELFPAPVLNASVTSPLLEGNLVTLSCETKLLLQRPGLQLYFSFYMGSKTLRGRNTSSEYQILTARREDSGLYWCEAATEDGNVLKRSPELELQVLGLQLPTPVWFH
# Description: as §1, §2
# [3] = target: T3, low affinity immunoglobulin gamma fc region receptor IIA (FCGR2A) (CD32) (human, UniProt P12318 34-217)
# T3 construct: Bought recombinant human protein (Santa Cruz Biotechnology); also called FCGR2A receptor
# T3 sequence: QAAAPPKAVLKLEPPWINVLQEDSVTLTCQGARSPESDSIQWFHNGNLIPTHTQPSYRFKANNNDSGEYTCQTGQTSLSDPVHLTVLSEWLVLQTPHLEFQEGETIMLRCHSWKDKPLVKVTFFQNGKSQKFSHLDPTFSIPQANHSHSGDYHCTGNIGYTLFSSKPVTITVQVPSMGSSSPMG
# Description: as §1, §2
# [4] = target: T4, low affinity immunoglobulin gamma fc region receptor IIIA (FCGR3A) (CD16a) (human, UniProt P08637 17-208)
# T4 construct: Bought recombinant human protein (Santa Cruz Biotechnology); also called FCR3A
# T4 sequence (P08637 17-208 limits assumed): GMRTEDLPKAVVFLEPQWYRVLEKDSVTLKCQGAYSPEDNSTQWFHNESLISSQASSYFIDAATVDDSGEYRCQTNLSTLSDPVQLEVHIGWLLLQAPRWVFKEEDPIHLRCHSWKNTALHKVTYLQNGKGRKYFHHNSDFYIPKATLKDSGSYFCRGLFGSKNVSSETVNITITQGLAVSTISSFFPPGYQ
# Description: as §1, §2
binder,measurement,setting,value
B1,binding result,[1],no binding (tested: FCGR titrated from 5 µg/ml)
same,binding result,[2],no binding (tested: FCGR titrated from 5 µg/ml)
same,binding result,[3],no binding (tested: FCGR titrated from 5 µg/ml)
same,binding result,[4],no binding (tested: FCGR titrated from 5 µg/ml)
B2,binding result,[1],no binding (tested: FCGR titrated from 5 µg/ml)
same,binding result,[4],no binding (tested: FCGR titrated from 5 µg/ml)
